Data from article PMC11008285 (Cell reports, 2024).

Molecular target: the molecule itself

B1: full-length CARD9 (natural protein, UniProt Q9H257 1-536, looked up)
chain: MSDYENDDECWSVLEGFRVTLTSVIDPSRITPYLRQCKVLNPDDEEQVLSDPNLVIRKRKVGVLLDILQRTGHKGYVAFLESLELYYPQLYKKVTGKEPARVFSMIIDASGESGLTQLLMTEVMKLQKKVQDLTALLSSKDDFIKELRVKDSLLRKHQERVQRLKEECEAGSRELKRCKEENYDLAMRLAHQSEEKGAALMRNRDLQLEIDQLKHSLMKAEDDCKVERKHTLKLRHAMEQRPSQELLWELQQEKALLQARVQELEASVQEGKLDRSSPYIQVLEEDWRQALRDHQEQANTIFSLRKDLRQGEARRLRCMEEKEMFELQCLALRKDSKMYKDRIEAILLQMEEVAIERDQAIATREELHAQHARGLQEKDALRKQVRELGEKADELQLQVFQCEAQLLAVEGRLRRQQLETLVLSSDLEDGSPRRSQELSLPQDLEDTQLSDKGCLAGGGSPKQPFAALHQEQVLRNPHDAGLSSGEPPEKERRRLKESFENYRRKRALRKMQKGWRQGEEDRENTTGSDNTDTEGS
stoichiometry N: 4
